Source: US20190077860A1 (EISAI R AND D MANAGEMENT, published 2019)
Positions count from the first letter of the chain named. Blank lines part the entries; values can stand above or below the binder they belong to.

Tests used:
Assay in all cases: ELISA
[1] = target: T1, human EphA3 extracellular region-SEAP-His protein (human, UniProt P29320 21-541)
T1 construct: extracellular domain; also called hEphA3-SEAP-His
T1 sequence (looked up): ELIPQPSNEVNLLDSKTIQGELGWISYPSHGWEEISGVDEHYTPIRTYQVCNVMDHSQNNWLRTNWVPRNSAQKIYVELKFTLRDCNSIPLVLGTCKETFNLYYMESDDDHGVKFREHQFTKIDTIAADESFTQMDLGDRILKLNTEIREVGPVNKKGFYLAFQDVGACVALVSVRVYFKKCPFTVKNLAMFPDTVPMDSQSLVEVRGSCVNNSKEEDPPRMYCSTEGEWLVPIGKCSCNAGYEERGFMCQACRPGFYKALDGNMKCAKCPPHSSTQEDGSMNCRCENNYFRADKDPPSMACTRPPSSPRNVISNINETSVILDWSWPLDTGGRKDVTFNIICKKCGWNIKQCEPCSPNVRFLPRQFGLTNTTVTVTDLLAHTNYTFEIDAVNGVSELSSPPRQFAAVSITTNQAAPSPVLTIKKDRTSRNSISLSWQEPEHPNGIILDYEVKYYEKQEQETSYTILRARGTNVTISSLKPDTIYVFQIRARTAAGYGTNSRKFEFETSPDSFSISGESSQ

[2] = target: T2, human EphA2 extracellular region-SEAP-His protein (human, UniProt P29317 24-537)
T2 construct: extracellular domain; also called hEphA2-SEAP-His
T2 sequence (P29317 24-537): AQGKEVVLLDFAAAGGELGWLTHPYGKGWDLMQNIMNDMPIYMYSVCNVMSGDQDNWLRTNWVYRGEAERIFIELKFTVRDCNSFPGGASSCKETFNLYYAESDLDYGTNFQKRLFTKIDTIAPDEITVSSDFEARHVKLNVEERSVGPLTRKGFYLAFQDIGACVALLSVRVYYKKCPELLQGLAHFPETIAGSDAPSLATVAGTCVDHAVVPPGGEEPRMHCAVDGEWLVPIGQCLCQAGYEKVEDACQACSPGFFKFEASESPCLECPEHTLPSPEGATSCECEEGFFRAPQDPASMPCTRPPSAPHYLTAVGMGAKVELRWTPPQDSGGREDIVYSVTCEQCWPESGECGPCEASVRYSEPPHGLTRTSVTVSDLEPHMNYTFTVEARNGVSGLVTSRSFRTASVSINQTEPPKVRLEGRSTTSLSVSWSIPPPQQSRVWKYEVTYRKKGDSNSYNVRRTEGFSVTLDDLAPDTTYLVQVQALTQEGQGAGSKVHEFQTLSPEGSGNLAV

[3] = target: T3, human EphA4 extracellular region-SEAP-His protein (human, UniProt P54764 20-547)
T3 construct: also called hEphA4-SEAP-His
T3 sequence (P54764 20-547): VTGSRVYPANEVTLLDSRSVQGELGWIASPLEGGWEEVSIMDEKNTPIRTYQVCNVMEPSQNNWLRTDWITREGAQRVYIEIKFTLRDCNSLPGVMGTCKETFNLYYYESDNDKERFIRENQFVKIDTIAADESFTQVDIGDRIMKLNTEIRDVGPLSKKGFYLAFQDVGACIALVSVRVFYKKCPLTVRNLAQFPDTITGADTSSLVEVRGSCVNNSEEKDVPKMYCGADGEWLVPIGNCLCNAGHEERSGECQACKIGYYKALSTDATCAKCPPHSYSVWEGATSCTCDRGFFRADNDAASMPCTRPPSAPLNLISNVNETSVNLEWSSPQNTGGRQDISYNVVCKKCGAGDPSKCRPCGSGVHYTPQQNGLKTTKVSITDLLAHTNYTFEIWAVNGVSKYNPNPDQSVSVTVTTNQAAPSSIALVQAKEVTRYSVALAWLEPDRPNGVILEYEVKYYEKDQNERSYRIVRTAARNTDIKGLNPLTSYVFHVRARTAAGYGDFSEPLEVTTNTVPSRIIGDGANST

[4] = target: T4, human EphA1 extracellular region-SEAP-His protein (human, UniProt P21709 26-547)
T4 construct: extracellular domain; also called hEphA1-SEAP-His
T4 sequence (looked up): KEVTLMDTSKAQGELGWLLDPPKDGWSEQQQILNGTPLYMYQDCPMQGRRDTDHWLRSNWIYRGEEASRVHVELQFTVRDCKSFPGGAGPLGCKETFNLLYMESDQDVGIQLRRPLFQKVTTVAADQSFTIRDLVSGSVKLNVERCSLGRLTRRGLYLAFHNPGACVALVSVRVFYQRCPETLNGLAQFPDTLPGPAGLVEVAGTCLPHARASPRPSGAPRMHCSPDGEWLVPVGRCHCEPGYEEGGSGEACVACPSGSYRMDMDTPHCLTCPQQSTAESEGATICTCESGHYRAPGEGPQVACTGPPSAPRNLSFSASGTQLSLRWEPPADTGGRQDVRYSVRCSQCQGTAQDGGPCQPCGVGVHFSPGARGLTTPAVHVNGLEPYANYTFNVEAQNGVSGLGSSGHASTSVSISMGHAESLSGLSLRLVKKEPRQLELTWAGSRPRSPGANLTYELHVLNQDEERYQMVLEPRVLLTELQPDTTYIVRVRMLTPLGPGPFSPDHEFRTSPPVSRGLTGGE

[5] = target: T5, human EphA8 extracellular region-SEAP-His protein (human, UniProt P29322 28-542)
T5 construct: extracellular domain; also called hEphA8-SEAP-His
T5 sequence (looked up): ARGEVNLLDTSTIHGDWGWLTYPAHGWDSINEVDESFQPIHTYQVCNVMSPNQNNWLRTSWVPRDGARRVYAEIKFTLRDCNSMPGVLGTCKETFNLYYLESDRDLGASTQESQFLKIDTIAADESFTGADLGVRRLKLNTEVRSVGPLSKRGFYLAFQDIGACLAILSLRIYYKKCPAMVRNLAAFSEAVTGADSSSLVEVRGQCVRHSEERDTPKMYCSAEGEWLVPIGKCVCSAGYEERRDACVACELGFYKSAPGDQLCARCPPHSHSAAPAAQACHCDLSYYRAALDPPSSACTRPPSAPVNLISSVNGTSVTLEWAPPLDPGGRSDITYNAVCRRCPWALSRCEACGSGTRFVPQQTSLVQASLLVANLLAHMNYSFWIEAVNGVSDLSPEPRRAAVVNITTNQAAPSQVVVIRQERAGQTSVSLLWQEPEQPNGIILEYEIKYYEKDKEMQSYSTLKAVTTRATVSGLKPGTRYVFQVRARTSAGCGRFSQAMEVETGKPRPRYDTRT

[6] = target: T6, human EphB1 extracellular region-SEAP-His protein (human, UniProt P54762 18-540)
T6 construct: extracellular domain; also called hEphB1-SEAP-His
T6 sequence (looked up): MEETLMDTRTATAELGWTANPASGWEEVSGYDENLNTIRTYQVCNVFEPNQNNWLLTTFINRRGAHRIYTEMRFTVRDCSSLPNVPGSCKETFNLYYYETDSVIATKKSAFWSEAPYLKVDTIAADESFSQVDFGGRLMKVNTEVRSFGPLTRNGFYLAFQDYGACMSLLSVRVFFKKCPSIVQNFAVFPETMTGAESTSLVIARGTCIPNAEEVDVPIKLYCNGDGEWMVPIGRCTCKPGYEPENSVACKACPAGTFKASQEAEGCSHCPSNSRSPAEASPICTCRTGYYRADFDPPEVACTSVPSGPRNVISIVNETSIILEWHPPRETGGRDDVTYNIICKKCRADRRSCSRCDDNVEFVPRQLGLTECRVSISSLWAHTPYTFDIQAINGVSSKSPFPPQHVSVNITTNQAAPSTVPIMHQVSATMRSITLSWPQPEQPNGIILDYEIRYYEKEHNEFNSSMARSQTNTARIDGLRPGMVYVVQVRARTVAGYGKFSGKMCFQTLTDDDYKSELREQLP

B1: humanized antibody No. 155 (antibody, human IgG2)
heavy: QIQLVQSGSELKKPGASVKVSCKASGYTFTDYSMHWVRQAPGQGLKWMGWINTETGEPTYADDFKGRFVFSLDTSVSTAYLQISSLKAEDTAVYYCARIPLYYYGSRYWYFDVWGQGTTVTVSSASTKGPSVFPLAPSSRSTSESTAALGCLVKDYFPEPVTVSWNSGALTSGVHTFPAVLQSSGLYSLSSVVTVPSSNFGTQTYTCNVDHKPSNTKVDKTVERKSCVECPPCPAPPAAAPSVFLFPPKPKDTLMISRTPEVTCVVVDVSHEDPEVQFNWYVDGVEVHNAKTKPREEQFNSTFRVVSVLTVVHQDWLNGKEYKCKVSNKGLPAPIEKTISKTKGQPREPQVYTLPPSREEMTKNQVSLTCLVKGFYPSDIAVEWESNGQPENNYKTTPPMLDSDGSFFLYSKLTVDKSRWQQGNVFSCSVMHEALHNHYTQKSLSLSPG
light: DIQMTQSPSSLSASVGDRVTITCRASENIYRNLAWYQQKPGKAPKLLLYAATNLADGVPSRFSGSGSGTDYTLTISSLQSEDFATYYCQHFWGTPWTFGQGTKVEIKRTVAAPSVFIFPPSDEQLKSGTASVVCLLNNFYPREAKVQWKVDNALQSGNSQESVTEQDSKDSTYSLSSTLTLSKADYEKHKVYACEVTHQGLSSPVTKSFNRGEC
notes: human Ig kappa; also called L1-5/HK4
A450 as % of hEphA4-SEAP-His [1]: 5.6%
A450 as % of hEphA4-SEAP-His [2]: 5.5%
A450 as % of hEphA4-SEAP-His [3]: 100%
A450 as % of hEphA4-SEAP-His [4]: 5.5%
A450 as % of hEphA4-SEAP-His [5]: 5.5%
A450 as % of hEphA4-SEAP-His [6]: 5.4%

B2: humanized antibody No. 134 (antibody, human IgG2)
heavy: B1 heavy with I2V, D62Q, D63G, K65T
light: EIVMTQSPATLSVSPGERATLSCRASENIYRNLAWYQQKPGQSPRLLIYAATNLADGIPARFSGSGSGTEYTLTISSLQSEDFAVYYCQHFWGTPWTFGQGTKVEIKRTVAAPSVFIFPPSDEQLKSGTASVVCLLNNFYPREAKVQWKVDNALQSGNSQESVTEQDSKDSTYSLSSTLTLSKADYEKHKVYACEVTHQGLSSPVTKSFNRGEC
notes: human Ig kappa; also called L2-4/HA2
A450 as % of hEphA4-SEAP-His [1]: 5%
A450 as % of hEphA4-SEAP-His [2]: 5%
A450 as % of hEphA4-SEAP-His [3]: 100%
A450 as % of hEphA4-SEAP-His [4]: 5.1%
A450 as % of hEphA4-SEAP-His [5]: 5.7%
A450 as % of hEphA4-SEAP-His [6]: 5.1%

B3: humanized antibody No. 137 (antibody, human IgG2)
heavy: B1 heavy
light: B2 light
notes: human Ig kappa; also called L2-4/HK4
A450 as % of hEphA4-SEAP-His [1]: 5.6%
A450 as % of hEphA4-SEAP-His [2]: 5.4%
A450 as % of hEphA4-SEAP-His [3]: 100%
A450 as % of hEphA4-SEAP-His [4]: 6.1%
A450 as % of hEphA4-SEAP-His [5]: 5.9%
A450 as % of hEphA4-SEAP-His [6]: 5.8%

B4: humanized antibody No. 156 (antibody, human IgG2)
heavy: B1 heavy with D62Q, D63G, K65T
light: B1 light with K45Q, S80P
notes: human Ig kappa; also called L1-6/HA4
A450 as % of hEphA4-SEAP-His [1]: 5.7%
A450 as % of hEphA4-SEAP-His [2]: 5.5%
A450 as % of hEphA4-SEAP-His [3]: 100%
A450 as % of hEphA4-SEAP-His [4]: 5.7%
A450 as % of hEphA4-SEAP-His [5]: 5.5%
A450 as % of hEphA4-SEAP-His [6]: 5.4%

B6: humanized antibody No. 136 (antibody, human IgG2)
heavy: B1 heavy with I2V
light: B2 light
notes: human Ig kappa; also called L2-4/HK2
A450 as % of hEphA4-SEAP-His [1]: 5.2%
A450 as % of hEphA4-SEAP-His [2]: 5.1%
A450 as % of hEphA4-SEAP-His [3]: 100%
A450 as % of hEphA4-SEAP-His [4]: 5.3%
A450 as % of hEphA4-SEAP-His [5]: 5.4%
A450 as % of hEphA4-SEAP-His [6]: 5.2%

B7: humanized antibody No. 133 (antibody, human IgG2)
heavy: B1 heavy with I2V, K46E, D62Q, D63G, K65T
light: B2 light
notes: human Ig kappa; also called L2-4/HA1
A450 as % of hEphA4-SEAP-His [1]: 5%
A450 as % of hEphA4-SEAP-His [2]: 4.7%
A450 as % of hEphA4-SEAP-His [3]: 100%
A450 as % of hEphA4-SEAP-His [4]: 4.9%
A450 as % of hEphA4-SEAP-His [5]: 4.7%
A450 as % of hEphA4-SEAP-His [6]: 4.6%

B9: humanized antibody No. 135 (antibody, human IgG2)
heavy: B1 heavy with I2V, K46E
light: B2 light
notes: human Ig kappa; also called L2-4/HK1
A450 as % of hEphA4-SEAP-His [1]: 5%
A450 as % of hEphA4-SEAP-His [2]: 5%
A450 as % of hEphA4-SEAP-His [3]: 100%
A450 as % of hEphA4-SEAP-His [4]: 5.2%
A450 as % of hEphA4-SEAP-His [5]: 5%
A450 as % of hEphA4-SEAP-His [6]: 5.1%

B11: humanized antibody No. 132 (antibody, human IgG2)
heavy: B1 heavy with D62Q, D63G, K65T
light: B2 light
notes: human Ig kappa; also called L2-4/HA4
A450 as % of hEphA4-SEAP-His [1]: 4.8%
A450 as % of hEphA4-SEAP-His [2]: 4.8%
A450 as % of hEphA4-SEAP-His [3]: 100%
A450 as % of hEphA4-SEAP-His [4]: 4.8%
A450 as % of hEphA4-SEAP-His [5]: 4.7%
A450 as % of hEphA4-SEAP-His [6]: 4.8%

Further lines, results first:

A450 as % of hEphA4-SEAP-His [1]: 5.4%
A450 as % of hEphA4-SEAP-His [2]: 5.4%
A450 as % of hEphA4-SEAP-His [3]: 100%
A450 as % of hEphA4-SEAP-His [4]: 5.4%
A450 as % of hEphA4-SEAP-His [5]: 5.5%
A450 as % of hEphA4-SEAP-His [6]: 5.3%
B5: humanized antibody No. 159 (antibody, human IgG2)
heavy: B1 heavy with I2V
light: B1 light with K45Q, S80P
notes: human Ig kappa; also called L1-6/HK2

A450 as % of hEphA4-SEAP-His [1]: 6.5%
A450 as % of hEphA4-SEAP-His [2]: 6.7%
A450 as % of hEphA4-SEAP-His [3]: 100%
A450 as % of hEphA4-SEAP-His [4]: 6.5%
A450 as % of hEphA4-SEAP-His [5]: 6.4%
A450 as % of hEphA4-SEAP-His [6]: 6.2%
B8: humanized antibody No. 158 (antibody, human IgG2)
heavy: B1 heavy with I2V, D62Q, D63G, K65T
light: B1 light with K45Q, S80P
notes: human Ig kappa; also called L1-6/HA2

A450 as % of hEphA4-SEAP-His [1]: 6.2%
A450 as % of hEphA4-SEAP-His [2]: 6.1%
A450 as % of hEphA4-SEAP-His [3]: 100%
A450 as % of hEphA4-SEAP-His [4]: 6.5%
A450 as % of hEphA4-SEAP-His [5]: 5.4%
A450 as % of hEphA4-SEAP-His [6]: 6.1%
B10: humanized antibody No. 160 (antibody, human IgG2)
heavy: B1 heavy
light: B1 light with K45Q, S80P
notes: human Ig kappa; also called L1-6/HK4

A450 as % of hEphA4-SEAP-His [1]: 6.4%
A450 as % of hEphA4-SEAP-His [2]: 6.3%
A450 as % of hEphA4-SEAP-His [3]: 100%
A450 as % of hEphA4-SEAP-His [4]: 6.2%
A450 as % of hEphA4-SEAP-His [5]: 6%
A450 as % of hEphA4-SEAP-His [6]: 6.1%
B12: humanized antibody No. 157 (antibody, human IgG2)
heavy: B1 heavy with I2V, K46E, D62Q, D63G, K65T
light: B1 light with K45Q, S80P
notes: human Ig kappa; also called L1-6/HA1
